Measurements from patent US20110135644A1 (ESBATECH AN ALCON BIOMEDICAL RESEARCH UNIT, published 2011).

Biological target: T1, human TNF-alpha (Peprotech, London, UK) (human, UniProt P01375 77-233)
T1 construct: Commercial recombinant protein
Test: direct ELISA, plates coated with 0.5 µg/ml human TNF-alpha; ESBA105 standard series 50-0.5 ng/ml; used to quantify ESBA105 in serum and brain tissue
Protocol: ESBA105 concentrations were determined by triplicate measurements of each sample in a direct ELISA. 96-well plates (NUNC MaxiSorp; Omnilab, Mettmenstetten, Switzerland) were coated with 0.5 μg/ml human TNF-alpha (Peprotech, London, UK) in PBS overnight at 4° C. Between each of the following steps plates were washed three times with TBS-T (0.005% Tween20; Axon Lab, Baden-Dattwyl, Switzerland) using a micro plate washer (ASYS Atlantis, Salzburg, Austria). Unspecific binding sites were saturated by 1.5 hour incubation in PBS/1% BSA/0.2% Tween20. […] Bound ESBA105 was detected with a biotinylated affinity purified polyclonal rabbit anti-ESBA105 antibody (AK3A, ESBATech, Schlieren, Switzerland) that was diluted 1:20′000 in dilution buffer (1.5 h, room temperature). AK3A, in turn, was detected with poly-horseradish peroxidase streptavidin (Stereospecific Detection Technologies, Baesweiler, Germany) at a concentration of 0.2 ng/ml dilution buffer. […] Absorbance was measured at 450 nm in a plate reader (Sunrise; Tecan, Maennedorf, Switzerland) and ESBA105 concentrations in samples were calculated by polynomial regression from a standard curve (GraphPad Prism 4.03; GraphPad Software, Inc., San Diego, Calif.). The minimum quantifiable concentration (LOQ) of ESBA105 was 5 ng/ml in serum and 33 ng/ml in brain tissue, respectively.

T1 sequence (P01375 77-233 limits assumed): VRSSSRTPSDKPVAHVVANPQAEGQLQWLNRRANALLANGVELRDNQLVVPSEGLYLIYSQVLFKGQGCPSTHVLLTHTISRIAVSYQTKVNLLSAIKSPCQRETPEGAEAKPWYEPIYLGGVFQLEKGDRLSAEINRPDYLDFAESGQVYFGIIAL

binding result: binds
B1: ESBA105 (scFv)
scFv: MADIVMTQSPSSLSASVGDRVTLTCTASQSVSNDVVWYQQRPGKAPKLLIYSAFNRYTGVPSRFSGRGYGTDFTLTISSLQPEDVAVYYCQQDYNSPRTFGQGTKLEVKRGGGGSGGGGSGGGGSSGGGSQVQLVQSGAEVKKPGASVKVSCTASGYTFTHYGMNWVRQAPGKGLEWMGWINTYTGEPTYADKFKDRFTFSLETSASTVYMELTSLTSDDTAVYYCARERGDAMDYWGQGTLVTVSS
notes: also called ESBA105 scFv (α-TNFalpha); E105
